Test results as given in the DeepSol protein solubility set.

Assay: soluble on expression in E. coli; label from the status in PepcDB or PDB records

Row | Sequence | soluble on expression in E. coli
1 | MGKGDSIIVAVRVRPFNDREKTRNCKLVIEMPDEETTVIRDPKTNDEKRFTYDHSYWSHDGFSEKKNGYLEPTDPHYADQRRVFEDLGRGVLANAWAGYNCSLFAYGQTGSGKSYSIVGFKNNKGIVPIVCEELFKQIADNKKKNMQFEVFVSMMEIYCEKVRDLLSSTPPPKGGLKVREHPKNGFYVENLTTVPVNSFKEIEAKIEEGTKSRTIAATQMNATSSRAHTIVKITFNQKSSKQAGGTSMKKSEINLVDLAGSERQSAAGTEGDRLKEGIVINQSLTTLGRVIKALHDSQKAKSGKKTQIPYRDSVLTCLLKNALGGNSKTIMIAAISPADINFEETLSTLRFADRAKSIKTNAVVNENQTERALRELREENLRLQSQIQGGTAGDASNEEIEKLRRQLAENQKEMEEMEKSWQQKIAEEAAKHASGASEKVEMEAKKKKMCHLWNLNEDPALTNVIVHFIPVGESVVGNKPTSSGNFIQMSGLSILPQHVTLKNDGNNQIHLSPCSEDLDIFINGKPVHGETQLQQNDRVFFGGNHLYVFNNPTKKGIRTDITYENAQAEIAQNHAAALGNRGLGGGSKRDLILEEELMSTLPLVQRANAMATELGRNVKFEIVLVSPEMRGLTSGLTEIWVKVHNISEDTYFLWEKSRFMNRYYGMQEMYEAKQDGSEDWNMPKERDPFYEPPDSPVFIASSVVFLQSLAYLIDVEEQFPIVDLSGQEIGLLTVGLSPCSTTGKELRGEYVEDPDQLIGKNIAFKVKVISAVGLPRRILKSNCKYRFFGSKKMTTTATVSGNTPAYGHEETFQFKPVTKEVADYLANSNLYITFWGTQRPRGASSRKNSISTIGSNEAREGPNKAKRVERLVHQAKTSENRNISVKALETVLKGVDDNENRKTRKQSMKKAGSTTIKSRSGSKKPKAK | not soluble
2 | MNTEVIHYIIRFLIGDESGNDQLLSRIGYTSKQSEMSRYSIVIRASNFFDSDIYGTDKAFPLLPLKEWEGVPLLFGEPTEELLEESDTLVLNADIVASTYFLISRYEEMYRRKLRDIHGRFPGRESLPFKAGFLQRPVVDEYGAILRTKIRQMGWPVKDPVPHFSMVNLTHDVDEPFEYRGWRSFARALIKERKSPFKAFRLAYANPASDRFFTFPRFVDWDKILRSKMPDCCRIIFFFKAPGKAPQDAPNYSLRKPLYQSLRSLVKNNGIVIGLHSNYSAGLNPELIGKQRKRLMSDTDMAVDCNRHHYLAAREPEDMQALISAGIRHDYTMGYADVAGFRLGTSRPVRFIMPSTRRLTELILHPLTLMDCTLHRQEYMGLDEATAIELCKELLMHTFIHGGEATLLWHNEYLSRDIHPWHARLYREVLRLIETMEEKQEEESFDYETAIDQ | not soluble
3 | MVTSKKCPTCHGKRLSTSVLKCKINNLDIADFTNLSIDDALKFIKKIDSPKANVIIEPLQQQLESLSYIGLNYLTLSRESTSLSGGESQRIKLIRHLNSALSDLVYIIDEPSIGLHPEDIQRINEIILSLKNKGNTVLVVEHDPDVIKIADYIIDLGPLAGKYGGDITFTGSYHELLNSTTHTGDALRRMHQLKSPNLSASNFINLKNVSRNNIKNMTVTLPEQAMTVVTGVAGSGKSSLIHTGLEALADTIFIDQKPAHASSRSNLLTYLNIFDDVRSYFSEVTGLKKSLFSYNSAGACPECHGKGIIKTELAFMPDFTQTCDVCHGKRYKPEVLDVKVEGYNIADILALTVDEAITFFNKNKDIAQPLQALKSTGLNYMTLGQTLDTLSGGEVQRVKLSKYLTKTVHQHIFVFDEPTTGLHEDDIPILIDCFKRLIDEHNTVVIIEHNLTMMTYADWIIDIGPFAGEKGGQLLYQGEPQGLLQINASLTAKHLKRYTERLEHHHHHH | soluble
4 | MRTLITGASGQLGIELSRLLSERHEVIKVYNSSEIQGGYKLDLTDFPRLEDFIIKKRPDVIINAAAMTDVDKCEIEKEKAYKINAEAVRHIVRAGKVIDSYIVHISTDYVFDGEKGNYKEEDIPNPINYYGLSKLLGETFALQDDSLIIRTSGIFRNKGFPIYVYKTLKEGKTVFAFKGYYSPISARKLASAILELLELRKTGIIHVAGERISRFELALKIKEKFNLPGEVKEVDEVRGWIAKRPYDSSLDSSRARKILSTDFYTLDLDGMVV | soluble
5 | MAHHHHHHMPRGGHKGGLFPVSGIKWGMNERIKKRGLYHNRREDILTPRWGYRYENENKKYLPDGSSKSFDIDSSRAWPVDKAQWKYYYNINESRYLWPSICANNPEIKNYILNIIENTDTYFSGIGLEQVSNERKNKNLKKDYTNNSYYKNNYLYNLVHELNNTIYPQIEINLNNNLKRGRIQKLYDIIKEENIWKTTQKIKTPESENVFPYVDDNATLIRELPLSEILYTKSNLRLKVRRHPKWMNVQFLKKKVKIPYLYR | not soluble
6 | MGSDKIHHHHHHMWFKNLMTYRLTKPLDWDLAQLQTQLEDCQFHPCGTQDQSKFGWSAPLRGSDLLYFSVGKQILLIAKKEEKILPANVVKRELDDRIESLEQKENRKLKKVEKQTLKDDVVMNLLPRAFSKNQHTALWIDTENNLIHIDAASSKRAEDALALLRKSLGSLPVVPLAFANEPSTILTNWILQDNLPHWLLALEEAELRGSQEDSVIRCKKQPLENEEILALLQDGKKVVSKLALEWEDTLTFVFNEDCTIKRLKFADTVREKNDDILKEDFAQRFDADFVLMTGILAKLTENLLDEFGGEKARL | not soluble
7 | MSLIYPEITGKSGEHLRLKTLESVWIQGKLRMWGRWSYIGDGKTGNMFNQLLTSKKLTKTAINEALRRMKKAGLDKPELEAFLRDMINGNQKSWLAHCTDSEALIIDRVIGEVLAGYPGLLNVLSQRYVGRGMTKRKMAELLNDAHPEWSLRTCERRIEHWLKVAEFILYKPMVMAFGIEKKVIAFEGHHHHHH | soluble
8 | MTDGSMDIDAMLEGGLEMAKNDRSQSRQRSPARSNRSRPSRVPIQSDVD | not soluble
9 | MLASIPLKDIQIQDRFWKERLDLVRKEIIPYQWEAMNDRVPNAEPSHCIENYRIAAGQAQGSFYGEVFQDSDLAKWLEAVAYVLSFQPDPKLEKLADEAIELVCAAQQSDGYLNTFFTIKEPDQRWRNLREGHELYCAGHMMEAAVAYFEATGKRRLLDAMMRFADLICNTFGPEEGKIHAYPGHEEVELALFRMYRATGVRRYLELSAYFINCRGTGENYFRKENDRPGYLPIWGSMDTNSDMSYYQAHQPVREQKQAAGHAVRAMYLYSAMADLAGELKDEGLLNACKTLWNNVTERQMYVTGGVGASGILERFTTDYDLSNEMAYAESCASIGLMLFGLRMNRVTRQAQYFDPVERALYNTVLASVALDGKSFFYVNPLEVWPKACMPYTSKEHVKPVRQPWFSCACCPPNVARTFASLGQYIWAQDSQRVYLNLFISSTVKAKNGAILKLETEFPMGNVLKITSDQVLELAVRIPGYGKNFRANVSYRKENGYGVFELEAGKELEIQFDAPACFIRANPEVRACSGKVCIQRGPVVYCLEEIDNGSNLSALSVDTAVSPGERESDIPGGLMITASGKRRRPWADDKLYGEIPSQYEETVLQAVPYAFWGNREKGEMTVWIRESLEHHHHHH | not soluble
10 | MGSDKIHHHHHHMDIIVVGGGTSGLLSALALEKEGHNVIVFEKESYVGGLCRSEKIDGYSVDIGVHAITMLDNGPLIRLLNKYSRYLPNFRNYGDYYIRTDKLHRIPVSMHEWMTTPVIPNKDKVLITSKIMDLMTMGFTKDASVYDFVKEMGLSSTSVDFFNTIAYFLSGEDLENTPLWRFFTGAGYIPEDDILPFIYKDMKINPLKSTLVKKFGTERIINILNDGFISSIKNGSKKYINKFMTEHRYSTQGYPVGGVQSICNCITYSLRNTQIKNEEVKKITKNGKKYTVKTSEGEYTSDIIVYSAPAITLPKVAKINKIQKNKEKLSNIKFTKSTTVWIGDEKNYFPYLGSEIWIDNPCWASTVSNYDESLAPKGKHLMGFSFVNSKKEDALKTIESKLNLNTDKVDMLYVQETVPEQASCSIGQFFVYPKIDDTFFVVGTDSDPRSMGITRAAYSVEVMLSEFKNIYDTQKETAKK | not soluble
11 | MGKYFGTDGVRGVANKELTPELAFKIGRFGGYVLTKDTDRPKVIIGRDTRISGHMLEGALVAGLLSTGAEVMRLGVISTPGVAYLTKALDAQAGVMISASHNPVQDNGIKFFGSDGFKLTDEQEAEIEALLDKEVDELPRPTGTNLGQVSDYFEGGQKYLQYIKQTVEEDFSGLHIALDCAHGATSSLAPYLFADLEADISTMGTSPNGMNINDGVGSTHPEVLAELVKEKGADIGLAFDGDGDRLIAVDEKGNIVDGDQIMFICAKYMKETGQLKHNTVVSTVMSNLGFYKALEANGITSDKTAVGDRYVMEEMKRGGYNLGGEQSGHIILLDYITTGDGMLSALQLVNIMKMTKKPLSELAGEMTKFPQLLVNVRVTDKKLALENEKIKEIIRVVEEEMNGDGRILVRPSGTEPLIRVMAEAPTQEVCDAYVHRIVEVVKAEVGAE | not soluble
